Experiments:
[1] = format: in vitro ADME, human
Procedure: A limitation of most synthetic peptide drugs is their protease sensitivity. […] Retropepsin would inactivate LACRIPEP, while cathepsin K would have no effect. However neither protease is found in normal human tears. Nonetheless, tears are rich in other proteases. We therefore incubated LACRIPEP in normal human tears at 37° C. for 2, 4, 6 and 16 hr. For immunoblotting, we first removed all endogenous lacritin by immunodepletion. […] (FIG. 6B).

[2] = system: S. epidermidis; assay: Lacritin inhibition (colony count) assay, S. epidermidis; format: cell-based; conditions: 2 uM, mid-log S. epidermidis
Procedure: (§1) Bacterial Growth, SYTOX Green Assays, and on Column Cleavage—E. coli (ATCC (Manassas Va.) catalog no. 10536), S. epidermidis (ATCC catalog no. 12228), and P. aeruginosa (ATCC catalog no. 9027) were grown to mid-log phase in 50 ml of Luria-Bertani (LB) medium and washed three times in phosphate buffer containing 10 mM NaCl (pH 7.2; PB—NaCl) with centrifugation. Pellets were resuspended in 1 ml of PB—NaCl.
(§2) For lacritin inhibition assays, 50 ul of bacterial pellets each diluted 1:100 in PB—NaCl were incubated for 1.5 h (37° C.) with 100 ul of lacritin, lacritin truncations, or synthetic peptides at a final concentration of 0.1-6 uM. Mixtures were diluted 1:10 in PB—NaCl before plating 100 ul in quadruplicate on LB agar plates for overnight growth at 37° C. Colonies were manually counted. In other experiments, mid-log E. coli was treated at 37° C. for 0, 1, 2, or 3 h with 2 uM lacritin or lacritin truncations or with ampicillin (5 uM) or tetracycline (2 uM). After each treatment, 100 ul was centrifuged, resuspended in 1 ml of PB—NaCl, and plated (100 ul) onto LB agar for overnight growth (37° C.) and colony counting.

[3] = system: bacteria; assay: Lacritin inhibition (colony count) assay, bacterium not given; format: cell-based; conditions: whole protein
Procedure: as §1, §2

[4] = system: P. aeruginosa; assay: Lacritin inhibition (colony count) assay, P. aeruginosa; format: cell-based; conditions: 2 uM, mid-log P. aeruginosa
Procedure: as §1, §2

[5] = system: HCE-T cells; assay: FOXO3 translocation assay in IFNG/TNF stressed HCE-T cells; format: cell-based, human; conditions: dry eye tears 1:100, 10 nM, 15 min
Procedure: For FOXO3 translocation assays, HCE-T cells were grown in triplicate to subconfluence (˜50%) on coverslips in α-MEM (5.54 mm glucose), sensitized overnight in IFNG (100 units/ml; Roche Applied Science), and treated for 15 min with normal or dry eye tears diluted 1:100 in α-MEM together with TNF (50 ng/ml; PeproTech, Rocky Hill, N.J.) without or with 10 nm lacritin or C-25. Cells were washed, fixed with 4% paraformaldehyde, and immunostained for FOXO3 (1:200; Millipore, Billerica, Mass.) followed by goat anti-rabbit secondary antibody and visualization on a Zeiss LSM 700 microscope.

[6] = system: E. coli; assay: Lacritin inhibition (colony count) assay, E. coli; format: cell-based; conditions: 2 uM, mid-log E. coli
Procedure: as §1, §2

[7] = system: corneal sensory nerves; assay: Corneal sensory nerve activity monitored at the trigeminal ganglion; format: in vivo, rat
Description: Topical lacritin stimulates tearing even without physical access to lacrimal acinar cells. The rapidity of the response is in keeping with corneal sensory nerve activation. Individual corneal sensory nerve activity was monitored at the level of the trigeminal ganglion in rats via previously described methods. Emerging from these studies was the observation that topical lacritin is neural stimulatory. […] The ‘dry response’ refers to neural activation as a consequence of drying of the cornea, which is thought to be a critical TRPM8-mediated stimulus for tearing, while the ‘wet response’ occurs when the agonist is present at the corneal nerve terminals. […] Apparent inhibition of the action potentials by lacritin during wet cornea was small because the TRPM8 activity during wet cornea is low to begin with, while it reaches optimal level during dry cornea when dynamic cooling of the ocular surface is taking place. Lacritin may also increase TRPM8 neural density.

[8] = system: Aire(−/−) dry eye mice; assay: Topical treatment of Aire(-/-) dry eye mice; format: in vivo, mouse
Procedure: Autoimmune regulator (Aire)-deficient [Aire^−/−] mice spontaneously develop dry eye without need for dry chambers or scopolamine Aire^−/− mice were dosed three times daily for three weeks with 10 μl of 50 μg/mllacritin, or in controls with PBS. Several different assays monitored the consequences. […] Topical lacritin reduced CD4+T cell infiltration into lacrimal glands measured as the number of lymphocytic foci/per millimeter square area of lacrimal gland tissue (3.68±0.65 per mm sq lacritin vs. 9.7+1.5 per mm sq PBS; P=0.01), but had no apparent effect on the pattern or distribution of CD4+T cells into either the corneal stroma (14.6±1.6 lacritin vs 12.4±2.1 PBS) or the limbus (29.6±2.5 lacritin vs 34.6±2.9 PBS.
To assess ocular surface mucosal damage from dry eye, eyes of Aire(−/−) dry eye mice were topically administered lissamine green that increasingly stained PBS-treated eyes with time (See FIG. 4C). […] Thus, topical lacritin, and its bioactive fragments thereof, diminished lacrimal gland inflammation and corneal staining in dry eye, and promoted ocular surface differentiation. Importantly, suppression of inflammation and promotion of tearing was achieved without direct contact with inflammatory cells nor with tear producing cells.

[9] = system: basal tearing; conditions: Sumadre et al. 2011, cited from earlier work
[10] = system: primary human corneal epithelial cells; assay: FOXO3 translocation in INFG/TNF stressed primary human corneal epithelial cells; format: cell-based

B1: lacritin: 12.3 kDa secreted tear glycoprotein; recombinant, generated in Escherichia coli (protein, listed as Homo sapiens)
chain: MKFTTLLFLAAVAGALVYAEDASSDSTGADPAQEAGTSKPNEEISGPAEPASPPETTTTAQETSAAAVQGTAKVTSSRQELNPLKSIVEKSILLTEQALAKAGKGMHGGVPGGKQFIENGSEFAQKLLKKFSLLKPWA
[1]
  Cross-linking of monomer spiked into immunodepleted tears: formed dimers, trimers and tetramers
[2]
  Appearance of colonies: no effect on the appearance of colonies
[3]
  Bactericidal activity: does not have bactericidal activity
[4]
  Appearance of colonies: no effect on the appearance of colonies
[5]
  FOXO3 translocation to the cytoplasm by dry eye tears spiked with the substance: translocated FOXO3 to the cytoplasm
[6]
  Appearance of colonies: no effect on the appearance of colonies
[7]; 10 μM, from ˜12 before
  Corneal neuron activity immediately after application: ~8 spikes/s
  Wet response after 1 hr and washout: ~16 spikes/s
[7]; 10 μM, from ˜20 before
  Dry response after 1 hr and washout: ~23 spikes/s
[7]; topical
  Neural dry response: enhanced
[8]
  Keratin 10 levels (skin epidermal marker): diminished levels
  Keratin 12 expression (corneal marker): 80.1±4.8%
  Lissamine green staining: −0.417±0.06
[8]; three times daily for three weeks, 10 μl of 50 μg/ml
  Lymphocytic foci per millimeter square area of lacrimal gland tissue (CD4+T cell infiltration): 3.68±0.65 per mm sq
[8]; three weeks
  CD4+T cells in corneal stroma: 14.6±1.6
  CD4+T cells in limbus: 29.6±2.5
[9]
  Tolerability of multiple doses per day: well tolerated
[9]; acute
  Increase of basal tearing over vehicle: 30%
[10]
  FOXO3 translocation: translocated FOXO3
